Test results reported in paper PMC6007033.

Tests used:
[1] = molecular target: BG505.T332N.SOSIP.664.113C.429GCG gp140 trimer (HIV-1 BG505); assay: SPR
[2] = molecular target: BG505.T332N.SOSIP.664.113C.431GCG gp140 trimer (HIV-1 BG505); assay: SPR

two-domain soluble CD4 (receptor) showed a reduction in binding affinity against the unmutated trimer [1] of 3 log and a reduction in binding affinity against the unmutated trimer [2] of 3 log.
